Data taken from patent US20260031189A1, “METHOD AND SYSTEMS FOR PREDICTION OF HLA CLASS II-SPECIFIC EPITOPES AND CHARACTERIZATION OF CD4+ T CELLS” (BioNTech US Inc., priority 2022, published 2026).

T1: HLA-DRA*01:01/DRB1*15:01 soluble heterodimer (human)
T1 chain 1: not shown
T1 chain 2: not shown

T2: HLA-DPA1*01:03/DPB1*04:01 soluble heterodimer (human), P20036
T2 chain 1: not shown
T2 chain 2: not shown

B1: S425-440 (peptide)
peptide: LPDDFTGCVIAWNSNN
modifications: not checked
B2: S231-243 (peptide)
peptide: IGINITRFQTLLA
modifications: not checked
B3: S39-54 (peptide)
peptide: PDKVFRSSVLHSTQDL
modifications: not checked
B4: S798-810 (peptide)
peptide: GGFNFSQILPDPS
modifications: not checked
B5: S1182-1196 (peptide)
peptide: EIDRLNEVAKNLNES
modifications: not checked
B6: S1009-1023 (peptide)
peptide: TQQLIRAAEIRASAN
modifications: not checked
B7: Positive control peptide … (unlabelled) (peptide)
peptide: AAATAGTTVYGAKAA
modifications: not checked
B8: S749-762 (peptide)
peptide: CSNLLLQYGSFCTQ
modifications: not checked
B9: S238-254 (peptide)
peptide: FQTLLALHRSYLTPGDS
modifications: not checked
B10: S829-845 (peptide)
peptide: ADAGFIKQYGDCLGDIA
modifications: not checked
B11: S322-338 (peptide)
peptide: PTESIVRFPNITNLCPF
modifications: not checked
B12: Positive control peptide … (unlabelled) (peptide)
peptide: EKKYFAATKFEPLAARL
modifications: not checked
B13: S166-182 (peptide)
peptide: CTFEYVSQPFLMDLEGK
modifications: not checked
B14: S131-147 (peptide)
peptide: CEFQFCNDPFLGVYYHK
modifications: not checked

The binders below were run against HLA-DQA1*01:02/DQB1*06:02 soluble heterodimer (human), P01920 (assay: FP competition with FITC probe, HLA-sDM, average).
B1 showed an IC50 of 390 nM.
B2 showed an IC50 of over 50000 nM.
B3 gave an IC50 of 1600 nM.
With B4 the IC50 was 1200 nM.
With B5 the IC50 was over 50000 nM.
Binder B6 has an IC50 of 520 nM.
Work on B7 yielded an IC50 of 1100 nM.

Target: T1, HLA-DRA*01:01/DRB1*15:01 soluble …
Assay: FP competition with FITC probe, HLA-sDM, average
B8 was tested, and the IC50 was 270 nM.
With B9 the IC50 was 140 nM.
Binder B10 has an IC50 of 56 nM.
In the case of B11, the IC50 is reported as 26 nM.

Target: T2, HLA-DPA1*01:03/DPB1*04:01 soluble …
Assay: FP competition with FITC probe, HLA-sDM, average
Work on B12 yielded an IC50 of 30 nM.
With B2 the IC50 was 510 nM.
B13 showed an IC50 of 11 nM.
Binder B14 has an IC50 of 58 nM.
